Test results taken from the RNAGym collection of RNA variant scans (doi:10.1093/molbev/msab373).

B1: Azoarcus group I ribozyme (parent)
chain: GUGCCUUGCGCCGGGAAACCACGCAAGGGAUGGUGUCAAAUUCGGCGAAACCUAAGCGCCCGCCCGGGCGUAUGGCAACGCCGAGCCAAGCUUCGGCGCCUGCGCCGAUGAAGGUGUAGAGACUAGACGGCACCCACCUAAGGCAAACGCUAUGGUGAAGGCAUAGUCCAGGGAGUGGCGAAAGUCACACAAACCGG

Variants of: B1
Assay: reverse-splicing fitness (ratio to wild type); higher = more active; in vitro selection; Mg2+ level not given
Method in brief: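 An in vitro group I ribozyme library with randomized positions was T7-transcribed and gel-purified. In triplicate, 10 pmol RNA in EPPS pH 7.5 was reacted with 50 pmoles of a 30-nt RNA substrate for 1 h at 37 °C across several added MgCl2 levels (1–48 mM), then stopped with EDTA. Products were reverse transcribed from a substrate-complementary primer, PCR-amplified and sequenced (HiSeq 4000). Fitness is a variant's read proportion after selection over that before, normalised to wild type.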
With C82G A111U A120C A145G C150A C169A U176G the reverse-splicing fitness was 0.00968. For C82G A111U A120C A145G C150A C169A U176A, the reverse-splicing fitness was 0.02. For C82G A111U A120C A145G C150A C169A U176C, the reverse-splicing fitness was 0.026. For C82G A111U A120C A145G C150U C169A U176C, the reverse-splicing fitness was 0.0177. Variant C82G A111U A120C A145G C150U C169A U176G has a reverse-splicing fitness of 0.00812. For C82G A111U A120C A145G C150U C169A U176A, the reverse-splicing fitness was 0.0177. C82G A111U A120C A145U C150G gave a reverse-splicing fitness of 0.0103. C82G A111U A120C A145U C150U showed a reverse-splicing fitness of 0.0337. With C82G A111U A120C A145U C150A the reverse-splicing fitness was 0.0104. With C82G A111U A120C A145U C150G C169G U176C the reverse-splicing fitness was 0.007. For C82G A111U A120C A145U C150G C169G U176A, the reverse-splicing fitness was 0.00838. C82G A111U A120C A145U C150G C169G U176G gave a reverse-splicing fitness of 0.00592. C82G A111U A120C A145U C150A C169A showed a reverse-splicing fitness of 0.0103. In the case of C82G A111U A120C A145U C150A C169G, the reverse-splicing fitness is reported as 0.00901. C82G A111U A120C A145U C150A C169U showed a reverse-splicing fitness of 0.00991. Work on C82G A111U A120C A145G C169U U176A yielded a reverse-splicing fitness of 0.0138. C82G A111U A120C A145G C169U U176C gave a reverse-splicing fitness of 0.0156. C82G A111U A120C A145G C169U U176G showed a reverse-splicing fitness of 0.00528. Variant C82G A111U A120C A145C C169A U176G has a reverse-splicing fitness of 0.00544. C82G A111U A120C A145C C169A U176A showed a reverse-splicing fitness of 0.0193. For C82G A111U A120C A145C C169A U176C, the reverse-splicing fitness was 0.00941. With C82G A111U A120C A145G C150U C169A the reverse-splicing fitness was 0.0111. With C82G A111U A120C A145G C150U C169U the reverse-splicing fitness was 0.0134. Work on C82G A111U A120C A145G C150U C169G yielded a reverse-splicing fitness of 0.00889. In the case of C82G A111U A120C A145U C150G U176G, the reverse-splicing fitness is reported as 0.00406. C82G A111U A120C A145U C150G U176C gave a reverse-splicing fitness of 0.00903. For C82G A111U A120C A145U C150G U176A, the reverse-splicing fitness was 0.0058. With C82G A111U A120C A145C C169A the reverse-splicing fitness was 0.00886. In the case of C82G A111U A120C A145C C169U, the reverse-splicing fitness is reported as 0.0119. Work on C82G A111U A120C A145C C169G yielded a reverse-splicing fitness of 0.00986. Variant C82G A111U A120C A145U C150A C169U U176A has a reverse-splicing fitness of 0.0146. Work on C82G A111U A120C A145U C150A C169U U176C yielded a reverse-splicing fitness of 0.0141. C82G A111U A120C A145U C150A C169U U176G showed a reverse-splicing fitness of 0.00715. For C82G A111U A120C A145C C150G C169U, the reverse-splicing fitness was 0.00834. Work on C82G A111U A120C A145G C169G U176A yielded a reverse-splicing fitness of 0.0187. In the case of C82G A111U A120C A145G C169G U176C, the reverse-splicing fitness is reported as 0.0281. C82G A111U A120C A145G C169G U176G showed a reverse-splicing fitness of 0.00543. C82G A111U A120C A145U C150U C169U U176G gave a reverse-splicing fitness of 0.00575. C82G A111U A120C A145U C150U C169U U176C gave a reverse-splicing fitness of 0.0137. With C82G A111U A120C A145U C150U C169U U176A the reverse-splicing fitness was 0.0134. In the case of C82G A111U A120C A145U C150A C169A U176A, the reverse-splicing fitness is reported as 0.0187. For C82G A111U A120C A145U C150A C169A U176G, the reverse-splicing fitness was 0.00709. C82G A111U A120C A145U C150A C169A U176C showed a reverse-splicing fitness of 0.0144. Work on C82G A111U A120C A145G C150G C169A U176G yielded a reverse-splicing fitness of 0.0104. With C82G A111U A120C A145G C150G C169A U176A the reverse-splicing fitness was 0.0145. For C82G A111U A120C A145G C150G C169A U176C, the reverse-splicing fitness was 0.0149. Variant C82G A111U A120C A145U C150U C169G U176C has a reverse-splicing fitness of 0.0194. C82G A111U A120C A145U C150U C169G U176A showed a reverse-splicing fitness of 0.016. For C82G A111U A120C A145U C150U C169G U176G, the reverse-splicing fitness was 0.00568. For C82G A111U A120C A145U C150A U176C, the reverse-splicing fitness was 0.018. Variant C82G A111U A120C A145U C150A U176A has a reverse-splicing fitness of 0.0101. With C82G A111U A120C A145U C150A U176G the reverse-splicing fitness was 0.00705. For C82G A111U A120C A145U C150U C169A U176C, the reverse-splicing fitness was 0.0135. C82G A111U A120C A145U C150U C169A U176G showed a reverse-splicing fitness of 0.00636. For C82G A111U A120C A145U C150U C169A U176A, the reverse-splicing fitness was 0.0178. For C82G A111U A120C A145U C169A U176A, the reverse-splicing fitness was 0.015. In the case of C82G A111U A120C A145U C169A U176G, the reverse-splicing fitness is reported as 0.00591. In the case of C82G A111U A120C A145U C169A U176C, the reverse-splicing fitness is reported as 0.0142. For C82G A111U A120C A145C C150G C169U U176C, the reverse-splicing fitness was 0.0113. With C82G A111U A120C A145C C150G C169U U176G the reverse-splicing fitness was 0.00524. Work on C82G A111U A120C A145C C150G C169U U176A yielded a reverse-splicing fitness of 0.00676. With C82G A111U A120C A145G C150G C169U the reverse-splicing fitness was 0.0106. For C82G A111U A120C A145G C150G C169A, the reverse-splicing fitness was 0.00998. C82G A111U A120C A145G C150G C169G gave a reverse-splicing fitness of 0.00753. C82G A111U A120C A145U U176C gave a reverse-splicing fitness of 0.0279. With C82G A111U A120C A145U U176A the reverse-splicing fitness was 0.0204. Work on C82G A111U A120C A145G C150U C169U U176A yielded a reverse-splicing fitness of 0.0137. C82G A111U A120C A145G C150U C169U U176G gave a reverse-splicing fitness of 0.00687. In the case of C82G A111U A120C A145G C150U C169U U176C, the reverse-splicing fitness is reported as 0.0146. C82G A111U A120C A145G C150G U176A gave a reverse-splicing fitness of 0.00813. Variant C82G A111U A120C A145G C150G U176C has a reverse-splicing fitness of 0.0118. Work on C82G A111U A120C A145G C150G U176G yielded a reverse-splicing fitness of 0.00789. With C82G A111U A120C A145G C150G C169U U176A the reverse-splicing fitness was 0.0139. In the case of C82G A111U A120C A145G C150G C169U U176C, the reverse-splicing fitness is reported as 0.0123. Work on C82G A111U A120C A145G C150G C169U U176G yielded a reverse-splicing fitness of 0.00871. With C82G A111U A120C A145U C150U C169U the reverse-splicing fitness was 0.0129. C82G A111U A120C A145U C150U C169A gave a reverse-splicing fitness of 0.0102. C82G A111U A120C A145U C150U C169G gave a reverse-splicing fitness of 0.00939. Variant C82G A111U A120C A145G C150U C169G U176C has a reverse-splicing fitness of 0.0196. Work on C82G A111U A120C A145G C150U C169G U176A yielded a reverse-splicing fitness of 0.0154. Variant C82G A111U A120C A145G C150U C169G U176G has a reverse-splicing fitness of 0.00632. Work on C82G A111U A120C A145G C150U U176C yielded a reverse-splicing fitness of 0.0292. For C82G A111U A120C A145G C150U U176G, the reverse-splicing fitness was 0.00905. C82G A111U A120C A145G C150U U176A gave a reverse-splicing fitness of 0.015.
